Results on 47 sequences are retold here after the NTF2 design screens of Basanta et al. (2020).

The nature of this series: protease stability score; higher = more stable; yeast display proteolysis, trypsin and chymotrypsin.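 Note: relative to predicted unfolded state with 0 unfolded-like and 1 meaning tenfold more protease.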
For the sequence “DETTEHVRKLTELLLRSWVTGDEETDEKMADPNVRIIFEGREVHGMHWFSRVVKELRIEHVQIHDERFKVFEGRAEMRVDTHLRGTQGNYHDERKVRVEIHIIKVNGRWHLETIRVSVH”, the protease stability score turned out to be 1.21.
Sequence “DETTEIQEKLAKELMRLLLTGNEEEIMKNADPDVREHVLVDGKHINNIGREEVHRVRRELLEKVKNLRIRINRVEIQGEKVRMETTLHIDGQDIHVIYIFIIINGRIKEVHIEIR” yielded a protease stability score of 0.708.
Next, “DETTEKNERYIERLHHYLETGNEEELLHLFDPNTKFVQGDKEIIGREEVRHWEEEKRRKMGIKHWDFEFRRVRIIGEKLIIHGKEIINFENHRLERTVEIHLLLIDGRVKEVVYHVN”: 1.2; “DETTELAREAIELLVKSLRTGDWDTSSRLLDPHTRYHYGEFNSHGREMFIISLEFLWKHLRIEDVHITHIRSIGDKVDVDTVLRVNVNGQVVDVEFFIHAHKVNGKWLYTEIRVR”: 1.16.
For the sequence “DETTELTQTVSQVFLDIWRTGDEDALRHLADPNTRLEVGEKTFHGRERVTEYVSRFKNVTVHLRRVTVQGNKVHIDSEMDFNGRKSDLHVELLVVDGRLKEIHVDIRWL”, the protease stability score was 1.84.
Sequence “DETTELVHEVWRVHLESLMTGDFDKFHELADPNAKVDVHYDGRRDDNHGREKLSHQIKRILQEWRVTIRINREDAIGNKLHVDSDLRVNYDGVEIRVRLLSIIVVVNGRFKSIEYHVL” came in with a protease stability score of 1.29.
Next, “DETTELVHRLIELFLNSLHTGDEKTMVKLADPHARVEVRINGRKEEYHGMEHWSEHLIRRLEHLRIEIRIHDMQWFEGHAQVHTELIVRYDGKEMRTSVQVHLFIVNGRFKSSIVIIH”: 1.05.
Next, “DETTETLLRISESNIRNWETGDFDTIKQLLDPHVRMEQGDKTNHGRERVAKSWTEFLRELRLKTVHLHEVDVQGEKALSHVILFVKIGDKKIEVEAHLLVVVIDGKVSSIHITIK”: -0.305; “DETTHELEWFTKIVAHAIETGDFEVMLNLIDPNVRVQEIIDGREIEFHGWHAFEHWMRKFKNITIIIRHVHHQGNKVEIEGEIDFNGKRRDVRIRFHVWNGRVKEFRHEER”: 1.52; “DETTKLTEELLRLIWEVLITGDEHLFERLADPHVRVDEIYGDKRIELHGRERVSTRLHELRIKRVELKEIEVFNGRSHANTHVNGHIDGVTFRSDTRWEFVMIDGKLEEVRRKIE”: 0.597.
Next, “DETTKLVEEVTRLLERAWETGDEETIYQLLDPNVKWNINGVDFHGMEHLAREIIHELRRHGFRVRFRLHHIDIQGDKARVESIEHIHIGNKHIHRRTYLFLSKVNGVWSIQEQRVE”: 1.44; “DETTQYIREILEIMRRTFHTGDFDTMLELMDPHARIVIGEKDEHGWEAAHHQMEYLLREWRIHDVEIRDVELQGDKIRVKLIVTGRIGDKLTLIDVELHVLKVNGKWYLKEISIR”: 1.19; “DEVDDEVDKMLEFVLDSWETGDEHINRDLMDPNVLVEAENRTLIGREWAEEFLHSIKKRFPNMRVQLHDMRVVGDKVELDTELRYGEYHNRTHIIALKVNGKWLVEKVHFH”: 1.13.
On to “DEVDEDEKHALHLLEHSIKTGDERMITEMMDPRYRLIINGQEFHGRELWIELWQRIKNIRINDVKFEELRVVGNKLRVRVHLDVQIGDKRYILDTEIVAVKVNGRWLNEEIIIR”, for which the protease stability score turned out to be 1.39.
In turn, “DEVDHMIELVTRLFIHAVLTGDEKILRDLMDPHVRVHVDGKKLHGWKEFIDWLREELERYDHFHFRVHHYNVVNGRVHADGNLDVHFNGRKHHITTDLRLIIWDGRIKTVDIRHH” showed a protease stability score of 1.75.
“DEVEELAKRLLEELIHALETGDFDHNRHLLDPNVRIVIGEKDHVGWREVTKALRHMGIDHIHVRIHRIEVQGDKVHTESSVEMDINGKKLEFDTWLILRKVNGRWLFHSIEIR” displayed a protease stability score of 1.44.
Next, “DEVEELIEENRRFFEESWMTGDEDSLRKNADPNVRLKVGEFHLIGREAFETWARQAVHMDSIEIHHMHFFDGVVHSITHFDGKFNGRKERHSIYLVELKVNGRWLNHEIRLK”: 0.511; “DEVEENAIRIAEDMLNNVLTGDEHLLRQLLDPHVRFILIVGDKTYTWHGREDFLEWLRKRLKQIDHEHIIIRDIKVVGDKAHIDGELHINVNGRTEDTRVHWDILVINGRIHKIRIIIH”: 1.38.
“DEVEERMKRIVKHFVSAVLTGNFRHMEQLFDPNYKHRIEIGDKIVNLHGWEAVVKWIEEEWRRFDHVEIRIRDMDVIGNKSEVHGDLHLKAENHTLEIHVIEHFFIVNGKLHHIEKTHH”: the protease stability score is -0.007.
Next, “DEVEHHMKTITDRLLTAIETGDEDEWERLLDPRVRVDIGDKHIHGREDYNRKFRERGFEIKRWEMKDMDVINGQIRIDGHRKIHIDGVTTRNTVHIIIVVYNGRVKHFEHRHE”: 0.578; “DEVEHIVRWMVELLMRALQTGDEETLTRLMDPHARHEIDGKESHGREFLDTLKRRFKNIQWHSIEIEDYKHYDGRVEIHGILHVRVGDKRHEIHIEFVIQKIDGRWHVDRLHLK”: 1.55; “DEVEHLLELMFRLIIETIRTGDEKLLEHLVDPNAKSLIDGRDYHGREMARHWHNRVDHLNDVHINDRKVQGEKIELDVRVDGRVGDKRIDERVHIIAFKINGQWIIHKMEVR”: 0.991.
Next, “DEVEKFSRDMLHFVRHLWETGDPHLFSRLADPHAQVHIGDKRLHGREEFEKHIEEMIERFPGIRLNLRHFEVQGDKMLVNFEIRVGEKNFTIHLEARKINGRWYIESVEVR”: 0.894.
Next, “DEVEKHLVHLTHRWIHSLLTGDEETISELLDPHARFNQGEWHHHGRELELRYWKEIRFKEMRISRYTAQGDKYHLDTELKGQVDGKEVRVRTHVHLVWVNGRAQSIYVEIH”: 1.02.
Regarding “DEVEKIVYDFLQRHIEHLLTGDEDSFTHNLDPHVRIHIDGQRLIGREDARREVRRLGFDHVEITKIEHQGEKLIVHGTMIINGQEIHLTIYIWKINGRWVVQSIEIK”, the protease stability score was 0.706.
As for “DEVEKSVKEWVNIVIHWLKTGNEEEILKYADPNVRLNVNGVNYVGRENAEHASREHLHELGIKHEEQKDVKIHSINGRMLLIIHMRLEYDGQHHEVTIIVRTIKINGRWHIHEVEIRND”, the protease stability score was 1.21.
Next, “DEVERDSELALREFYHAFRTGDEHTLVDLADPRTLTIWNGVELHGREEMKRLWHKVKNITVHDHHIDHERLIGNFVYMDVTIDGTFNGRRYRVRSHMVILKINGKWLYEKQHYE”: 1.16.
Consider “DEVERHLKEIFKDLERALNTGDEDRFEHLMDPHARYDVNGVEFIGMRWFRKLVKEIRIRHVDMRLEDVRHVGDFVKMITRIHIEVDINGKNDERETRTILIMHKIDGRWEIKEVIFL”, for which the protease stability score was determined as 1.38.
In turn, “DEVERWAKEIAELFLKLYLTGNWKNLERLLDPHMQFIIDGVRIHGREEMREFIRHEREFFKGMRHEITDSHVDVQGEKVEVHLHIEVIVNGQKHVRHINLHIEKIDGQWLIKLVIIHHE” displayed a protease stability score of 1.26.
“DEVHEEAERASEHFFESLLTGDEKSTESFIDPHAKMEFSFNGRNYDMIGRMWVEIEHRLLGIDHYIHKDNRTHSQGEKLLLIIHGRIRVGDKEFDVELHVIMMKIDGQWNVKRLEVRVK” showed a protease stability score of 1.25.
As to “DEVIEELERFHRTYQHAVHTGDEETHADLMDPNVRIHIGDKHIHGREWLIELVHRLGFKHSKEHWIIRRYDLQGNKVDEDGEVKRILNINGVLEHEERRVRIIILKIDGKWIIHSMHIR”, the protease stability score turned out to be 0.433.
Consider “DEVKEDTRRFFERIERALKTGDEDELKRMMDPHVQIHAENHEFHGREALRHFLERYDVVRDIKINDWRIINGRIQIDGEVEGVFNGRDKETHTIMILLKINGKWVITSLTIN”, for which the protease stability score turned out to be 2.09.
Next, “DEVKKETDEFSEKFRHALLTGDEEEIEKMADPHVKVDIDGREHHGREEWSEIYREWIHKRGVRIKHIRDHEVRIINGRAIIDQRVHGIVNGQETTLEMHFTTTKIDGRWILTEVFVK”: 1.42; “DEVKKFLDELLEILRKYSETGDEDSYTEMFDPNTRLLFEGRKFVGREEAIKFLRRVDVFSIKNFTMRHVETQGDWLHIDGEVLLLIIFNGKTFELKTKITFIMLKIDGRWILHAEEIR”: 1.71.
In turn, “DEVQRDAEEFWRLLVEALVTGDEDLWRKLADPHMRLDVNGVEIHGMEHYLKRIIEEMRRLGVELKDFRLHDVDIQGNKMHLKTHIDGRVNGQKNTRREEYVITKIDGRWQLESIKVH” yielded a protease stability score of 2.04.
Next, “DEVTEIAERFLEEFIQHHETGDEDRIRHLMDPHVRLTQGDKTLHGREEASRVVIELAKRIDHLHIKLTTIRVQGEKVYIHTELRMEVGDKELRFHVTFIFLKVNGRWRMHSVHIE”: 1.06; “DEWDEHLEHVAKLIIELLLTGDEETLSRLADPHTRLEWNGRETHGRENMQETLIKILKEIWIHDIRIRHVRTQGDKAHVEGEQDGIINGVRRILDVRILIVVFNGRLRSLRFQID”: 0.693; “DEWDEKLHHFFELMSHAMETGDEHMQDELADPHVRLIINGVDYIGRERFREMVKRVDYFSVRDIHFKDKEIQGDFIHFRGTLNGEEIINGVRIEKEVDFKLLILKVDGRWFLESEERR”: 0.668.
Next, “DEWDEMLHEWAERIIKHFITGDWESFVKMADPHVRLHVDGKDFIGRERMEEAFKELLERLGVDHVELHHVRVINGQNDVDEDVKVGNKRLKVIHHLVVYNGRIKSIEIETR”: 1.39; “DEWDNAREELKRMLFKLLETGDEDSFKRLIDPDARQHIDGQEIHGRERVYEIFYRIKNMTVHHIEDKHYEIVNGQIHSDVRIDMIVNGKRITLNIRVVMIKIDGKWYLHSEKIS”: 1.6.
Next, “DEWEEFVKRFLEAHVKANRTGDERLLQELIDPHVRIEFNGVELHGREIFTETISQLRIKDVNLRRYHMYDGQVEIHGELHGVFNGQEKDTKIHVREIKVDGRWKMKEYSIH”: 0.994; “DEWEELIEETAENIIRFIETGDEDFFRTFADPHMRFIYDQGDFRLIDHGREKVSEWLIRFLQEMRIIFIIEDVKVQGDKAHSQGRIHVNINGQRHEFNSRVIVVWVNGRLKYFRMSVR”: 1.43; “DEWEESHKLVSKMIADTDETGDERIKRRLLDPHARLIVDGREYHGREHMDKIWKYFGLDRIHVEVRRMHVYGDKVSLHVHSIYNGREVEVHIIIHKVDGRWHLHSVDIQ”: 0.596.
“DEWEETAKKATKDQLRDVATGDEDSHESLLDPNVKLQVGDKTFHGREEIHRWLREFLNKIPNIRLEVKEIHTQGDFVILDMKMDIDGREIHVRIVMIKVDGRWFVNKLIII” yielded a protease stability score of 0.615.
Sequence “DEWEEWLKAILEELRRISHTGDEDEIINNADPNVKIKIGDKLIIGREEFRRIMLELSKHFGITRFEFELHDRRIVGDKIHLDGTSRFNGVDERTTLIIMKVNGRWILRSMHVE” displayed a protease stability score of 1.41.
Sequence “DEWEKDARDFTRILLEIFKTGDEKSITELLDPNARVEYGDKEMHGMHLMSRILLKDAKEIRVDHMRLRSIDVYNGVLHVNMEVDGTIDGRRDTYRLHVHTHKFDGRWRVENLIIR” came in with a protease stability score of 1.06.
“DEWEKLYEIALEIFLEVFKTGNEEMFLKQADPHVRLDVGDKHYHGREHVVKFLIDELKRVKNLKVSSEHESFVGDYAHMHIDLDIDGRRVDVEIVSLKVDGKWVLREVRLH”: the protease stability score came to 1.34.
